The target of test [1] is T1, GST-p300CH1 (p300 residues 300-528) (UniProt Q09472 300-528).
T1 construct: range 300-528; Bacterially expressed, immobilised on glutathione beads; the construct is described in Bhattacharya et al., 1999; also called GST-CH1; GST tagged p300 (CH1 domain); not shown: glutathione S-transferase tag from pGEX4T1 (Pharmacia)
The test can be described thus: GST pull-down of 35S-labelled in vitro translated protein on GST-p300CH1.

Test [2] has as its target T2, GAL4-CH1 (residues 300-528 of p300 fused to the DNA-binding domain of GAL4) (UniProt P04386 1-147; Q09472 300-528).
T2 construct: also called GAL4-p300CH1
The test can be described thus: mammalian two-hybrid, GAL4-luciferase reporter, Hep3B cells. In general terms: In a reporter assay the amount or activity of a reporter protein is the signal.

T1 sequence (Q09472 300-528): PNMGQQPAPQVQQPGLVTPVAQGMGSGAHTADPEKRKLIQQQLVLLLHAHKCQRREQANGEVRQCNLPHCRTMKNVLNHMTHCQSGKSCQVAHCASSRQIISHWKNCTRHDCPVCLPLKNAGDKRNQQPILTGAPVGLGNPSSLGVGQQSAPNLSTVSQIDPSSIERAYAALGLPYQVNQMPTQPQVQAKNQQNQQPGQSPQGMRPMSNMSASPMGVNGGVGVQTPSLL

B1: HCITEDX mutant lacking the carboxy-terminal residues 138 to 184 (other)
chain: MADHLMLAEGYRLVQRPPSAAAAHGPHALRTLPPYAGPGLDSGLRPRGAPLGPPPPRQPGALAYGAFGPPSSFQPFPAVPPPAAGIAHLQPVATPYPGRAAAPPNAPGGPPGPQPAPSAAAPPPPAHALGGMDAELI
modifications: 35S-labelled (in vitro translated) in the GST pull-down assay
notes: also called HCITEDXΔ; carboxy-terminal mutant
In the case of B1, the binding result in test [1] is listed as “no binding”.

B2: VP16-HCITEDX? (VP16 activation domain fused to residues 1-137 of HCITEDX) (other)
chain: MADHLMLAEGYRLVQRPPSAAAAHGPHALRTLPPYAGPGLDSGLRPRGAPLGPPPPRQPGALAYGAFGPPSSFQPFPAVPPPAAGIAHLQPVATPYPGRAAAPPNAPGGPPGPQPAPSAAAPPPPAHALGGMDAELI
notes: also called VP16-HCITEDXΔ
In the case of B2, in test [2], the binding result is reported as “no binding”.

Values taken from patent publication US20040053231A1 (published 2004).
